Values of other authors, collected in PMC5650668.
Like-named read-outs stand apart in the source and are kept apart here.

Columns and labels:
[1] = target: ω-agatoxin IVA (Agelenopsis aperta) (UniProt P30288)
[2] = target: ω-agatoxin IVA (Agelenopsis aperta) (UniProt P30288); remark: listed apart in the source

Chain of UniProt P30288 (P30288 whole entry): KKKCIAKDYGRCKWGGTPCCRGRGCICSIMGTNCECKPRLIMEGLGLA

Row | Substance | Kd [1] [nM] | Kd [2] [nM]
1 | Cav2.1 (P current component) (from UniProt P54282) | 2 | 
2 | Cav2.1 (Q current component) (from UniProt P54282) |  | > 100
